Our source for the protein stability index values is the supplement of paper PMC10567573.

First the molecules themselves.
B1: RAB40B (parent)
chain: YSLTTSSTHKRSSLRKVKLVRPPQ
B2: APBB1IP (parent)
chain: PPEPLSQVSMWDQRWQDHQPLLPI
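Note: lentivirally expressed fusions sorted by FACS into six bins by GFP to DsRed ratio, PSI derived from sequencing read proportions per bin multiplied by bin number.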

The variants in one series derive from B1. Briefly: protein stability index of a GFP-peptide fusion (GPS, HEK-293T) (PSI 1-6); higher = more stable. The conditions noted are these: c terminus: a fixed tail appended.
For the variant YSLTTSSTHKRSSLRKVKLVNPPQ [R21N], the protein stability index is 2.92.
For YSLTTSSTHKRSSLRKVKLVSPPQ [R21S], the protein stability index was 3.09.
For the variant YSLTTSSTHKRSSLRKVKLVVPPQ [R21V], the protein stability index is 2.53.
With YSLTTSSTHKRSSLRKVKLVHPPQ [R21H], the protein stability index is 2.9.
For YSLTTSSTHKRSSLRKVKLVGPPQ [R21G], the protein stability index is 3.62.
With YSLTTSSTHKRSSLRKVKLVWPPQ [R21W], the protein stability index was found to be 2.25.
The same measure, in the same setting: in the case of YSLTTSSTHKRSSLRKVKLVIPPQ [R21I] it was 2.52.
Consider YSLTTSSTHKRSSLRKVKLVYPPQ [R21Y], for which the protein stability index came to 2.4.
In the case of YSLTTSSTHKRSSLRKVKLVTPPQ [R21T], the protein stability index is 2.76.
In the case of YSLTTSSTHKRSSLRKVKLVQPPQ [R21Q], the protein stability index came to 2.95.
With YSLTTSSTHKRSSLRKVKLVKPPQ [R21K], the protein stability index is 3.55.
Turning to YSLTTSSTHKRSSLRKVKLVMPPQ [R21M], the protein stability index stood at 2.51.
In the case of YSLTTSSTHKRSSLRKVKLVLPPQ [R21L], the protein stability index came out at 3.61.
In the case of YSLTTSSTHKRSSLRKVKLVPPPQ [R21P], the protein stability index amounted to 2.89.
As for YSLTTSSTHKRSSLRKVKLVRPPI [Q24I], the protein stability index turned out to be 2.22.
As for YSLTTSSTHKRSSLRKVKLVRPPL [Q24L], the protein stability index is 2.86.
In the case of YSLTTSSTHKRSSLRKVKLVRPPT [Q24T], the protein stability index stood at 3.
YSLTTSSTHKRSSLRKVKLVRPPD [Q24D]: the protein stability index came to 3.42.
As to YSLTTSSTHKRSSLRKVKLVRPPN [Q24N], the protein stability index worked out at 2.96.
Same read-out and setting: in the case of YSLTTSSTHKRSSLRKVKLVRPPK [Q24K] it was 2.75; in that of YSLTTSSTHKRSSLRKVKLVRPPW [Q24W], 2.68.
For YSLTTSSTHKRSSLRKVKLVRPPG [Q24G], the protein stability index amounted to 2.82.
Same read-out and setting: in the case of YSLTTSSTHKRSSLRKVKLVRPPE [Q24E] it was 3.06.
With YSLTTSSTHKRSSLRKVKLVRPPV [Q24V], the protein stability index came out at 2.31.
YSLTTSSTHKRSSLRKVKLVRPPA [Q24A]: the protein stability index turned out to be 2.53.
Consider YSLTTSSTHKRSSLRKVKLVRPPM [Q24M], for which the protein stability index worked out at 2.49.
For the variant YSLTTSSTHKRSSLRKVKLVRPPF [Q24F], the protein stability index came to 2.53.
As to YSLTTSSTHKRSSLRKVKLVRPPY [Q24Y], the protein stability index amounted to 3.09.
With YSLTTSSTHKRSSLRKVKLVRPPR [Q24R], the protein stability index worked out at 2.62.
On to YSLTTSSTHKRSSLRKVKLVRPPC [Q24C], for which the protein stability index worked out at 2.45.
As for YSLTTSSTHKRSSLRKVKLVRPPS [Q24S], the protein stability index was 2.76.
For the variant YSLTTSSTHKRSSLRKVKLVRPPH [Q24H], the protein stability index is 3.12.
In the case of YSLTTSSTHKRSSLRKVKLVRPPP [Q24P], the protein stability index came to 3.21.
YSLTTSSTHKRSSLRKVKLVRPKQ [P23K]: the protein stability index is 3.25.
Turning to YSLTTSSTHKRSSLRKVKLVRPIQ [P23I], the protein stability index was 2.82.
Turning to YSLTTSSTHKRSSLRKVKLVRPRQ [P23R], the protein stability index is 3.33.
On to YSLTTSSTHKRSSLRKVKLVRPSQ [P23S], for which the protein stability index was 3.25.
As for YSLTTSSTHKRSSLRKVKLVRPFQ [P23F], the protein stability index stood at 2.6.
For YSLTTSSTHKRSSLRKVKLVRPAQ [P23A], the protein stability index is 3.37.
On to YSLTTSSTHKRSSLRKVKLVRPWQ [P23W], for which the protein stability index was determined as 2.04.
In the case of YSLTTSSTHKRSSLRKVKLVRPQQ [P23Q], the protein stability index worked out at 3.08.
As to YSLTTSSTHKRSSLRKVKLVRPDQ [P23D], the protein stability index came out at 3.2.
For the variant YSLTTSSTHKRSSLRKVKLVRPTQ [P23T], the protein stability index came to 3.62.
For the variant YSLTTSSTHKRSSLRKVKLVRPGQ [P23G], the protein stability index is 2.69.
For YSLTTSSTHKRSSLRKVKLVRPEQ [P23E], the protein stability index is 3.1.
As to YSLTTSSTHKRSSLRKVKLVRPMQ [P23M], the protein stability index amounted to 2.8.
Take YSLTTSSTHKRSSLRKVKLVRPNQ [P23N]: the protein stability index was 2.96.
With YSLTTSSTHKRSSLRKVKLVRPCQ [P23C], the protein stability index was 2.73.
YSLTTSSTHKRSSLRKVKLVRPVQ [P23V]: the protein stability index stood at 3.02.
As for YSLTTSSTHKRSSLRKVKLVRPHQ [P23H], the protein stability index was 3.01.
Same read-out and setting: as for YSLTTSSTHKRSSLRKVKLVRPYQ [P23Y], the figure is 3.79; as for YSLTTSSTHKRSSLRKVKLVRPLQ [P23L], 2.3; as for YSLTTSSTHKRSSLRKVKLVRRPQ [P22R], 3.
For the variant YSLTTSSTHKRSSLRKVKLVRCPQ [P22C], the protein stability index is 3.61.
Take YSLTTSSTHKRSSLRKVKLVRFPQ [P22F]: the protein stability index is 2.44.
YSLTTSSTHKRSSLRKVKLVREPQ [P22E]: the protein stability index turned out to be 3.5.
YSLTTSSTHKRSSLRKVKLVRKPQ [P22K]: the protein stability index was 3.28.
YSLTTSSTHKRSSLRKVKLVRQPQ [P22Q]: the protein stability index is 3.39.
Consider YSLTTSSTHKRSSLRKVKLVRWPQ [P22W], for which the protein stability index is 1.94.
With YSLTTSSTHKRSSLRKVKLVRGPQ [P22G], the protein stability index is 2.44.
YSLTTSSTHKRSSLRKVKLVRLPQ [P22L]: the protein stability index was found to be 2.58.
As to YSLTTSSTHKRSSLRKVKLVRNPQ [P22N], the protein stability index worked out at 3.72.
For YSLTTSSTHKRSSLRKVKLVRIPQ [P22I], the protein stability index stood at 2.27.
As to YSLTTSSTHKRSSLRKVKLVRYPQ [P22Y], the protein stability index was found to be 2.84.
As for YSLTTSSTHKRSSLRKVKLVRAPQ [P22A], the protein stability index amounted to 2.76.
For YSLTTSSTHKRSSLRKVKLVRHPQ [P22H], the protein stability index worked out at 2.49.
As for YSLTTSSTHKRSSLRKVKLVRSPQ [P22S], the protein stability index was 3.13.
On to YSLTTSSTHKRSSLRKVKLVRVPQ [P22V], for which the protein stability index was 2.48.
YSLTTSSTHKRSSLRKVKLVRMPQ [P22M]: the protein stability index was 2.76.
Still for that read-out and setting: as for YSLTTSSTHKRSSLRKVKLVRTPQ [P22T], the figure is 3.32; as for YSLTTSSTHKRSSLRKVKLVRDPQ [P22D], 3.39.

The next series covers variants of B2. Described as above. The settings on record: c terminus: a fixed tail appended.
Take PPEPLSQVQMWDQRWQDHQPLLPI [S9Q]: the protein stability index worked out at 3.28.
The same measure, in the same setting: as for PPEPLSQVSMWGQRWQDHQPLLPI [D12G], the figure is 2.15; as for PPEPLSQVSMWNQRWQDHQPLLPI [D12N], 2.82.
For PVEPLSQVSMWDQRWQDHQPLLPI [P2V], the protein stability index turned out to be 3.11.
On to PPEPLSQVSEWDQRWQDHQPLLPI [M10E], for which the protein stability index was 3.98.
For the variant PPEPLSQVSAWDQRWQDHQPLLPI [M10A], the protein stability index amounted to 3.52.
Turning to PPEPLSQVSMQDQRWQDHQPLLPI [W11Q], the protein stability index came out at 4.25.
With PPEPLSQVSMWDQRWQDHAPLLPI [Q19A], the protein stability index stood at 3.04.
Take PPEPLSQVSMWDQYWQDHQPLLPI [R14Y]: the protein stability index was 3.12.
Consider PPEPLSQVSMWDQRWQDHQPLMPI [L22M], for which the protein stability index was determined as 2.58.
Still for that read-out and setting: in the case of PPEPLSQVSMWDQRWQDHQPLWPI [L22W] it was 2.4; in that of PPEPLSQVSMWDQRWQDDQPLLPI [H18D], 4.05.
The same measure, in the same setting: as for PPEPLSQVSMWDMRWQDHQPLLPI [Q13M], the figure is 3.46; as for PPEPLSQVSMWDQRWQDHQELLPI [P20E], 3.29.
In the case of PPEPLSQVSMWDQRWQDHQLLLPI [P20L], the protein stability index was determined as 2.61.
Still for that read-out and setting: in the case of PPEPLSQVSMWDQRWQWHQPLLPI [D17W] it was 2.79.
As to PPEPLCQVSMWDQRWQDHQPLLPI [S6C], the protein stability index was 2.46.
PPEPLLQVSMWDQRWQDHQPLLPI [S6L]: the protein stability index stood at 2.85.
Turning to PPEPASQVSMWDQRWQDHQPLLPI [L5A], the protein stability index is 3.74.
On to PPEPRSQVSMWDQRWQDHQPLLPI [L5R], for which the protein stability index was 3.62.
As to PPEPDSQVSMWDQRWQDHQPLLPI [L5D], the protein stability index turned out to be 3.58.
For PPEPNSQVSMWDQRWQDHQPLLPI [L5N], the protein stability index amounted to 3.31.
On the same count and under the same terms, in the case of PPEPLSQVSMWDQRWMDHQPLLPI [Q16M] it was 2.99.
